{"source": "patent US20240034816A1", "about": "(Sanofi, published 2024)", "key": {"cyno BCMA (PPB-17990)": {"target": "T1, cyno BCMA (PPB-17990) (cynomolgus, UniProt A0A2K5UD97 1-53)", "T1 construct": "also called cynomolgus BCMA", "T1 sequence (A0A2K5UD97 entry or part of it)": "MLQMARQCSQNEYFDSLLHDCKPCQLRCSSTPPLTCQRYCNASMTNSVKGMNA", "experiment": "SPR (Biacore 8K), NKCE captured by anti-human Fc, antigen as analyte, 1:1 model; Experiment No 3", "protocol": "(§1) Measurements were performed in multicycle kinetics experiments for each antibody using a Biacore 8K instrument. In each multicycle experiment the antibodies were captured via an anti-hum a Fc antibody immobilized on a series S CM5 sensor chip (human antibody capture kit, Cytiva, Uppsala, Catalog No. BR1008-39).\n(§2) The antigens, diluted as described above (concentration range 0.1 nM to 50 nM), were injected at a flow rate of 60 μL/min for 240 sec followed by a dissociation phase of 400 sec. All analyte concentrations were run in duplicate together with multiple buffer blanks for double referencing. Regeneration of the capture surface was performed with regeneration solution (3 mol/L MgCl2) for 60 sec at 30 μL/min. Binding kinetics data were evaluated with the Biacore 8K Evaluation Software version 1.1.1.7442 using a 1:1 binding model with mass transport limitation."}, "[1]": {"target": "T2, recombinant cynomolgus NKp46 extracellular domain with C-terminal Flag-M2 tag (cynomolgus, UniProt Q95JB9 22-254)", "T2 construct": "range 22-254; also called cyno NKp46; not shown: C-terminal Flag-M2 tag", "T2 sequence (Q95JB9 22-254)": "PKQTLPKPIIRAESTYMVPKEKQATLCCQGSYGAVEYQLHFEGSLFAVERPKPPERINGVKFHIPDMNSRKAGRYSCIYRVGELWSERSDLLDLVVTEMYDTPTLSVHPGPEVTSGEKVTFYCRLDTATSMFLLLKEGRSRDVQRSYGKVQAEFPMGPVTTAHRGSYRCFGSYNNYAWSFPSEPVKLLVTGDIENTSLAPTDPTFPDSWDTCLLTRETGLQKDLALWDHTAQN", "experiment": "SPR (Biacore 8K), NKCE captured by anti-human Fc, antigen as analyte, 1:1 model; Experiment No 3", "protocol": "as §1, §2"}, "recombinant human BCMA": {"target": "recombinant human BCMA (human, UniProt Q02223 1-54)", "sequence (Q02223 1-54 limits assumed)": "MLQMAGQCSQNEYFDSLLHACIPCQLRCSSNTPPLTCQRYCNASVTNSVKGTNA", "experiment": "SPR (Biacore 8K), NKCE captured by anti-human Fc, antigen as analyte, 1:1 model; Experiment No 3", "protocol": "as §1, §2"}, "[2]": {"target": "T3, recombinant human NKp46 extracellular domain (Gln22-Asn255) with C-terminal 6xHis tag (human, UniProt O76036 22-255)", "T3 construct": "range 22-255; also called huNKp46", "T3 sequence (O76036 other isoform, or with tags, fused parts or gaps limits assumed)": "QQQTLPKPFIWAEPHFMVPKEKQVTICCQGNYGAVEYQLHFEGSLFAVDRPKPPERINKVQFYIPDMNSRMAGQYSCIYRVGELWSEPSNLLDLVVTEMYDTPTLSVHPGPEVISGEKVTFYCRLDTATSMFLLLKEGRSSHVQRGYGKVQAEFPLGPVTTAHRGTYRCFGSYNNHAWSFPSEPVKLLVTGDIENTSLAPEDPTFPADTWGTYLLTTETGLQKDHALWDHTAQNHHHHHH", "experiment": "SPR (Biacore 8K), NKCE captured by anti-human Fc, antigen as analyte, 1:1 model; Experiment No 3", "protocol": "as §1, §2"}, "human CD64 (human FcγRI)": {"target": "T4, human CD64 (human FcγRI) (human, UniProt P12314 16-292, limits assumed)", "T4 construct": "also called HuFcyRI", "T4 sequence (P12314 16-292 limits assumed)": "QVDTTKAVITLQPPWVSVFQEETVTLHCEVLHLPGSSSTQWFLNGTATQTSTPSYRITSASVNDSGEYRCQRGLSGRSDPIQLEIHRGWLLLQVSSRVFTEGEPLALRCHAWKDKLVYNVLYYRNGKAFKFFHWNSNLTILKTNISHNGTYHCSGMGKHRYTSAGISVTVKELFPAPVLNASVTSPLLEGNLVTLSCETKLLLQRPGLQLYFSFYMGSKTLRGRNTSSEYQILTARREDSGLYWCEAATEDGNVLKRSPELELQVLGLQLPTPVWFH", "experiment": "SPR, fit 1:1 Binding, mean of 3 experiments"}, "[3]": {"target": "T5, human NKp46 on NK cells purified from PBMC of healthy donors (human, UniProt O76036 22-304)", "T5 construct": "whole, on cells; also called NKp46 on donor NK cells", "T5 sequence (O76036 22-304)": "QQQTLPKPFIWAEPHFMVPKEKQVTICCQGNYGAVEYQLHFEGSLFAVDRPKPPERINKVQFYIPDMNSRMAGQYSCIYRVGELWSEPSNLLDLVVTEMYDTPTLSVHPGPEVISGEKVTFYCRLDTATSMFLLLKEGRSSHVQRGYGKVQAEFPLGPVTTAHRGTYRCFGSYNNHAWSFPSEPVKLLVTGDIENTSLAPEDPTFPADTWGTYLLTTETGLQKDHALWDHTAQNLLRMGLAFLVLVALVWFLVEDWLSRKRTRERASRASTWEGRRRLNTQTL", "experiment": "flow cytometry titration on resting human NK cells from healthy donors, detection with goat anti-human IgG Fcγ-PE, 4-parameter fit; mean of 3 NK donors; NK cells also carry CD16a", "protocol": "After staining, cells were resuspended in BD Cellfix and analyzed by flow cytometry. Parameters were recorded and analysed with FlowJo software. Staining EC50 values were calculated with GraphPad prism using 4 parameter logistics non-linear regression model."}, "cynomolgus CD32b [4]": {"target": "T6, cynomolgus CD32b (cynomolgus)", "T6 construct": "also called CyFcyRIIb", "experiment": "SPR, fit Steady State Affinity, Exp No 3"}, "cynomolgus CD32a [5]": {"target": "T7, cynomolgus CD32a (cynomolgus)", "T7 construct": "also called CyFcyRIIa", "experiment": "SPR, fit Steady State Affinity, Exp No 3"}, "[6]": {"target": "T8, human CD16a (human FcγRIIIA), V isoform (human, UniProt P08637 17-208)", "T8 construct": "also called HuFcyRIIIaV; CD16a (V176)", "T8 sequence (P08637 17-208 F176V limits assumed)": "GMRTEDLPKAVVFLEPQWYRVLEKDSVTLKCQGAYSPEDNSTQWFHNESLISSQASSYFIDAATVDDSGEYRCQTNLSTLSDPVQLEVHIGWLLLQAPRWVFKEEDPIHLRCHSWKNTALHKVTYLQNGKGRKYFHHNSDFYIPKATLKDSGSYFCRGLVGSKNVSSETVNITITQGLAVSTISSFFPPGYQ", "experiment": "SPR (Biacore T200), His-tagged huCD16a captured by anti-His antibody on CM5 chip, antibody injected at 5.8-3000 nmol/L, steady state fit", "from_the_text": "All analyte concentrations were run in duplicate together with multiple buffer blanks for double referencing."}, "[7]": {"target": "T9, human CD32b (human FcγRIIB) (human, UniProt P31994 43-217, limits assumed)", "T9 construct": "also called HuFcyRIIb", "T9 sequence (looked up)": "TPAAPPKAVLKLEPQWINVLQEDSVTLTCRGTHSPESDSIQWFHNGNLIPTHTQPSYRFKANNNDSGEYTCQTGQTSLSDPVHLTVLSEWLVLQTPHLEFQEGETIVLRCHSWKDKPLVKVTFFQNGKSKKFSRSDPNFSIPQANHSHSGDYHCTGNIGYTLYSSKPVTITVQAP", "experiment": "SPR, fit Steady State Affinity, Exp No 1"}, "[8]": {"target": "T10, human CD32a (human FcγRIIA) (human, UniProt P12318 34-217, limits assumed)", "T10 construct": "also called HuFcyRIIa", "T10 sequence (looked up)": "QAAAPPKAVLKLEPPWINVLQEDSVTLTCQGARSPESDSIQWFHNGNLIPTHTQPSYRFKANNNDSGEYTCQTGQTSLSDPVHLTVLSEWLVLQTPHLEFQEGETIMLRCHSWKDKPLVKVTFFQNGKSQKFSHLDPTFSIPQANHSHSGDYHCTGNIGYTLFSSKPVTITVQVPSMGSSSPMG", "experiment": "SPR, fit Steady State Affinity, Exp No 1"}, "cynomolgus CD32b [9]": {"target": "T6, cynomolgus CD32b", "experiment": "SPR, fit Steady State Affinity, Exp No 1"}, "cynomolgus CD32a [10]": {"target": "T7, cynomolgus CD32a", "experiment": "SPR, fit Steady State Affinity, Exp No 1"}, "[11]": {"target": "T11, human CD16b (human FcgRIIIB) (human, UniProt O75015 17-200, limits assumed)", "T11 construct": "also called HuFcyRIIIb", "T11 sequence (O75015 17-200 limits assumed)": "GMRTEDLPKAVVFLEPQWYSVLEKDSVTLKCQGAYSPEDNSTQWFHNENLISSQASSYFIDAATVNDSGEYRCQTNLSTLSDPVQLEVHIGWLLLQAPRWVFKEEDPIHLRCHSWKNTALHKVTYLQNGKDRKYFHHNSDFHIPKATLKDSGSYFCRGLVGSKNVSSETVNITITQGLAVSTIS", "experiment": "SPR, fit Steady State Affinity, Exp No 1"}}}
{"binder": "NKp46-BCMA_Fc-ADE-DSB NKCE (bispecific antibody, human IgG1, kappa) light: QTVVTQEPSLTVSPGGTVTLTCASSTGTVTPSNYANWVQQKPGQAFRGLIGDNNSRPPGTPARFSASLLGGKAALTLSGVQPEDEAEYYCALWFGNQWVFGGGTKLTVLGGGGSGGGGSDIQMTQSPSSLSASVGDRVTITCRASQDISNYLNWYQQKPGKAPKLLIYYTSRLHSGVPSRFSGSGSGTDFTFTISSLQPEDIATYFCQQGNTRPWTFGGGTKVEIKGGGGSGGGGSRTVAAPSVFIFPPSDEQLKSGTASVVCLLNNFYPREAKVQWKVDNALQSGNSQESVTEQDSKDSTYSLSSTLTLSKADYEKHKVYACEVTHQGLSSPVTKSFNRGEC heavy: QVQLVQSGAEVKKPGSSVKVSCKASGYTFSDYVINWVRQAPGQGLEWMGEIYPGSGTNYYNEKFKAKATITADKSTSTAYMELSSLRSEDTAVYYCARRGRYGLYAMDYWGQGTTVTVSSQVQLVESGGGVVQPGRSLRLSCAASGFTFSNFGMHWVRQAPGRGLEWVAVIWSDETNRYYADSVKGRFTVSRDNVKSTVYLQMNSLISEDTAVYYCARDQQYCSSDSCFTWFDPWGQGTLVTVSSASTKGPSVFPLAPSSKSTSGGTAALGCLVKDYFPEPVTVSWNSGALTSGVHTFPAVLQSSGLYSLSSVVTVPSSSLGTQTYICNVNHKPSNTKVDKKVEPKSCDKTHTCPPCPAPELLAGPDVFLFPPKPKDTLMISRTPEVTCVVVDVSHEDPEVKFNWYVDGVEVHNAKTKPCEEQYNSTYRCVSVLTVLHQDWLNGKEYKCKVSNKALPAPEEKTISKAKGQPREPQVYTLPPCRDELTKNQVSLWCLVKGFYPSDIAVEWESNGQPENNYKTTPPVLDSDGSFFLYSKLTVDKSRWQQGNVFSCSVMHEALHNHYTQKSLSLSPG DKTHTCPPCPAPELLAGPDVFLFPPKPKDTLMISRTPEVTCVVVDVSHEDPEVKFNWYVDGVEVHNAKTKPCEEQYNSTYRCVSVLTVLHQDWLNGKEYKCKVSNKALPAPEEKTISKAKGQPREPQVCTLPPSRDELTKNQVSLSCAVKGFYPSDIAVEWESNGQPENNYKTTPPVLDSDGSFFLVSKLTVDKSRWQQGNVFSCSVMHEALHNRFTQKSLSLSPG", "values": [{"measurement": "Kd", "setting": "cyno BCMA (PPB-17990)", "result": 0.3, "unit": "nM"}, {"measurement": "koff", "setting": "cyno BCMA (PPB-17990)", "result": "6e-05", "unit": "s⁻¹"}, {"measurement": "kon", "setting": "cyno BCMA (PPB-17990)", "result": 180000, "unit": "M⁻¹ s⁻¹"}, {"measurement": "Kd", "setting": "[1]", "result": 17.8, "unit": "nM"}, {"measurement": "koff", "setting": "[1]", "result": 0.0033, "unit": "s⁻¹"}, {"measurement": "kon", "setting": "[1]", "result": 190000, "unit": "M⁻¹ s⁻¹"}, {"measurement": "Kd", "setting": "recombinant human BCMA", "result": 0.3, "unit": "nM"}, {"measurement": "koff", "setting": "recombinant human BCMA", "result": "5.7e-05", "unit": "s⁻¹"}, {"measurement": "kon", "setting": "recombinant human BCMA", "result": 190000, "unit": "M⁻¹ s⁻¹"}, {"measurement": "Kd", "setting": "[2]", "result": 12.5, "unit": "nM"}, {"measurement": "koff", "setting": "[2]", "result": 0.0018, "unit": "s⁻¹"}, {"measurement": "kon", "setting": "[2]", "result": 140000, "unit": "M⁻¹ s⁻¹"}, {"measurement": "Kd", "setting": "human CD64 (human FcγRI)", "result": 0.32, "unit": "nM"}, {"measurement": "EC50", "setting": "[3]", "result": 0.643, "unit": "µg/mL"}, {"measurement": "Kd", "setting": "cynomolgus CD32b [4]", "result": 1300, "unit": "nM"}, {"measurement": "Kd", "setting": "cynomolgus CD32a [5]", "result": 1700, "unit": "nM"}, {"measurement": "Kd", "setting": "[6]", "result": 165, "unit": "nM"}, {"measurement": "Kd", "setting": "[7]", "result": 1350, "unit": "nM"}, {"measurement": "Kd", "setting": "[8]", "result": 415, "unit": "nM"}, {"measurement": "Kd", "setting": "cynomolgus CD32b [9]", "result": 884, "unit": "nM"}, {"measurement": "Kd", "setting": "cynomolgus CD32a [10]", "result": 1350, "unit": "nM"}, {"measurement": "Kd", "setting": "[11]", "result": 1260, "unit": "nM"}]}
